Measured values: patent publication US7820142B2, “Immunogenic glycopeptides, screening, preparation and uses” (priority 2004, dated 2010)
“Also recorded” adds a separate entry of the source. Read-outs that look alike come from different tables or passages of the source. No end group written: not given here.

Columns and labels:
CD4+ T lymphocytes = type: cell-based, human; conditions: for difference of response between tuberculosis patients and vaccinated controls (in words): 18 patients versus 12 BCG-vaccinated controls
[1] = system: guinea pigs immunized with live BCG; type: in vivo, guinea pig; conditions: for loss of antigenic activity during digestion with α-mannosidase: 0.2 μg intradermal
[2] = system: guinea pigs immunized with heat-inactivated BCG; type: in vivo, guinea pig
T lymphocytes = test: in vitro lymphocyte proliferation assay; type: cell-based
From the text: The conditions of the assay are those described in Horn et al., mentioned above.

[3] = system: guinea pigs immunized with the plasmids pAG831 or pAG832; test: delayed-type hypersensitivity assay, guinea pigs immunized with naked DNA encoding Apa; conditions: guinea pig, in vivo
[4] = system: guinea pigs immunized with the Apa fusion peptide; test: delayed hypersensitivity reactions, guinea pigs immunized with the Apa fusion peptide; type: in vivo, guinea pig
[5] = system: CD4+ T lymphocytes originating from animals infected with M. tuberculosis or immunized with BCG; conditions: cited from earlier work
[6] = guinea pigs immunized with live BCG

Q: With “H-DPEPAPPVPTTAASPPSTAAAPPAPATPVAPPPPAPAAAT-NH2 [glycosylated Apa peptide]” as the molecule, how does the “stimulation of CD4+ lymphocytes from the controls” value (CD4+ T lymphocytes) read?
A: Its value is “does not stimulate”.

Q: What about the “proportion of tuberculosis patients positive in the assay” value (CD4+ T lymphocytes; 18 tuberculosis patients, six days stimulation) of the same molecule?
A: Its value is 13/18.

Q: Which “erythema reaction, peptide treated with subtilisin” value ([1]; 0.02 μg in 0.1 ml) does the source give for “Lip: mannosylated glycopeptide purified from M. tuberculosis culture medium, derived from the protein encoded by the Rv1796 gene (SEQ ID NO:3) (Ac-TIPTTETPPPPQTVTLSPVPPQTVTVIPAPPPEEG; also: mannosylated; listed as Mycobacterium tuberculosis)” here?
A: The value was “negative”.

Q: What about the “erythema reaction, peptide treated with α-mannosidase” value ([1]; 0.02 μg in 0.1 ml) of the same molecule?
A: The value was “negative”.

Q: And the “antigenic activity after deglycosylation” value ([1]; after α-mannosidase for 24 h at 37° C.)?
A: The value was “less than 30 000 TU/mg”.

Q: And the antigenic activity [1, 6]?
A: The antigenic activity was 1 000 000 TU/mg.

Q: And the “delayed-type hypersensitivity reaction (in words)” value [1, 6]?
A: Its value is “very active”.

Q: What about the “antigenic activity after the action of subtilisin” value ([1]; subtilisin 24 h at 37° C.) of the same molecule?
A: The value was “abolishes the antigenic activity”.

Q: And the “activity relative to PPD at an equivalent amount of proteins” value ([1]; versus standard purified proteins from M. tuberculosis (PPD))?
A: Its value is “at least 10 times”.

Q: What about the “loss of antigenic activity after α-mannosidase” value ([1]; α-mannosidase for 24 h at 37° C.) of the same molecule?
A: Its value is “more than 95%”.

Q: And the “delayed-type hypersensitivity reaction (in words)” value [2]?
A: The value was “relatively inactive”.

Q: What about the T-lymphocyte proliferation (T lymphocytes; T lymphocytes treated with an antibody directed against CD4 molecules) of the same molecule?
A: Its T-lymphocyte proliferation is “marginal”.

Q: What about the T-lymphocyte proliferation (T lymphocytes; glycopeptide treated with α-mannosidase) of the same molecule?
A: The T-lymphocyte proliferation was “marginal”.

Q: What about the T-lymphocyte proliferation (T lymphocytes; native glycopeptide) of the same molecule?
A: Its T-lymphocyte proliferation is “dependent on the peptide concentration”.

B1: Native Apa: protein secreted by M. tuberculosis, product of the Rv 1860 gene, purified from the culture supernatant (protein, UniProt P9WIR7 40-325, looked up)
Alanine and proline-rich …: DPEPAPPVPTTAASPPSTAAAPPAPATPVAPPPPAAANTPNAQPGDPNAAPPPADPNAPPPPVIAPNAPQPVRIDNPVGGFSFALPAGWVESDAAHFDYGSALLSKTTGDPPFPGQPPPVANDTRIVLGRLDQKLYASAEATDSKAAARLGSDMGEFYMPYPGTRINQETVSLDANGVSGSASYYEVKFSDPSKPNGQIWTGVIGSPAANAPDAGPPQRWFVVWLGTANNPVDKGAAKALAESIRPLVAPPPAPAPAPAEPAPAPAPAGEVAPTPTTPTPQRTLPA
modifications: glycosylated native
notes: protein secreted by M. tuberculosis, product of the Rv 1860 gene, purified from the culture supernatant
Q: With B1 as the molecule, how does the “loss of antigenic activity” value ([1]; Apa molecules on which there remain 3 to 6 mannose residues) read?
A: Its value is 86%.

Q: What about the “loss of antigenic activity during digestion with α-mannosidase” value ([1]; digestion 1 h) of the same molecule?
A: Its value is 66%.

Q: What about the “loss of antigenic activity during digestion with α-mannosidase” value ([1]; digestion 4 h) of the same molecule?
A: The value was 86%.

Q: What about the “delayed-type hypersensitivity reaction (in words)” value [1, 6] of the same molecule?
A: Its value is “antigenic; also recorded: show a delayed-type hypersensitivity reaction; also recorded: considerable”.

Q: What about the “delayed-type hypersensitivity / CD4+ T lymphocyte response (in words)” value [3] of the same molecule?
A: Its value is “equivalent; also recorded: develop, in the vast majority of cases, an immune response”.

Q: And the “sensitization (in words)” value [4]?
A: The value was “identical”.

Q: What about the “difference of response between tuberculosis patients and vaccinated controls (in words)” value (CD4+ T lymphocytes) of the same molecule?
A: Its value is “stimulates more frequently the response from the patients”.

Q: And the “loss of antigenicity after demannosylation” value ([5]; α-mannosidase, TFMS or expression in E. coli)?
A: Its value is 100 fold.

B2: glycosylated Apa produced by Mycobacterium smegmatis: Apa produced by M. smegmatis, overall mannose composition slightly different from that of M. tuberculosis Apa (protein, UniProt P9WIR7 40-325, looked up)
Alanine and proline-rich …: DPEPAPPVPTTAASPPSTAAAPPAPATPVAPPPPAAANTPNAQPGDPNAAPPPADPNAPPPPVIAPNAPQPVRIDNPVGGFSFALPAGWVESDAAHFDYGSALLSKTTGDPPFPGQPPPVANDTRIVLGRLDQKLYASAEATDSKAAARLGSDMGEFYMPYPGTRINQETVSLDANGVSGSASYYEVKFSDPSKPNGQIWTGVIGSPAANAPDAGPPQRWFVVWLGTANNPVDKGAAKALAESIRPLVAPPPAPAPAPAEPAPAPAPAGEVAPTPTTPTPQRTLPA
modifications: glycosylated, produced in M. smegmatis
Q: Which “decrease of antigenic activity versus Apa produced by M. tuberculosis” value [5] does the source give for B2 here?
A: The value was “approximately 10 fold”.

B3: Deglycosylated Apa: deglycosylated Apa protein prepared as described in example 1 (digestion with α-mannosidase) (protein, UniProt P9WIR7 40-325, looked up)
Alanine and proline-rich …: DPEPAPPVPTTAASPPSTAAAPPAPATPVAPPPPAAANTPNAQPGDPNAAPPPADPNAPPPPVIAPNAPQPVRIDNPVGGFSFALPAGWVESDAAHFDYGSALLSKTTGDPPFPGQPPPVANDTRIVLGRLDQKLYASAEATDSKAAARLGSDMGEFYMPYPGTRINQETVSLDANGVSGSASYYEVKFSDPSKPNGQIWTGVIGSPAANAPDAGPPQRWFVVWLGTANNPVDKGAAKALAESIRPLVAPPPAPAPAPAEPAPAPAPAGEVAPTPTTPTPQRTLPA
modifications: deglycosylated
Q: What does the source list for B3?
A: delayed-type hypersensitivity reaction (in words) [1, 6]: very weak or absent; delayed-type hypersensitivity / CD4+ T lymphocyte response (in words) [3]: of the same strength as the responses observed with the glycosylated native antigen; sensitization (in words) [4]: identical; difference of response between tuberculosis patients and vaccinated controls (in words) (CD4+ T lymphocytes): this difference between the groups is lost

B4: E. Coli recombinant Apa: deglycosylated recombinant Apa produced in E. coli (protein, UniProt P9WIR7 40-325, looked up)
Alanine and proline-rich …: DPEPAPPVPTTAASPPSTAAAPPAPATPVAPPPPAAANTPNAQPGDPNAAPPPADPNAPPPPVIAPNAPQPVRIDNPVGGFSFALPAGWVESDAAHFDYGSALLSKTTGDPPFPGQPPPVANDTRIVLGRLDQKLYASAEATDSKAAARLGSDMGEFYMPYPGTRINQETVSLDANGVSGSASYYEVKFSDPSKPNGQIWTGVIGSPAANAPDAGPPQRWFVVWLGTANNPVDKGAAKALAESIRPLVAPPPAPAPAPAEPAPAPAPAGEVAPTPTTPTPQRTLPA
modifications: recombinant, non-glycosylated, E. coli
Q: With B4 as the molecule, how does the “delayed-type hypersensitivity reaction (in words)” value ([1]; guinea pigs immunized with live BCG, listed as molecules produced in E. coli) read?
A: The value was “very weak or absent”.

Q: And the “delayed-type hypersensitivity reaction (in words)” value ([1]; guinea pigs immunized with live BCG, listed as non-glycosylated recombinant Apa produced in E. coli)?
A: The value was “no reaction or develop a greatly decreased reaction”.

Q: What about the “delayed-type hypersensitivity / CD4+ T lymphocyte response (in words)” value [3] of the same molecule?
A: The value was “of the same strength as the responses observed with the glycosylated native antigen”.

Q: What about the “delayed-type hypersensitivity / CD4+ T lymphocyte response (in words)” value ([3]; listed as E. coli rApa) of the same molecule?
A: Its value is “equivalent”.
